Data on 2 molecules can be found in CN115433274A (BEIJING KENUO XINCHENG TECH CO LTD, dated 2022).

The chains are these.
B1: 食蟹猴SA重组蛋白 (other)
chain: DTHKSEVAHRFKDLGEEHFKGLVLVAFSQYLQQCPFEEHVKLVNEVTEFAKTCVADESAENCDKSLHTLFGDKLCTVATLRETYGEMADCCAKQEPERNECFLQHKDDNPNLPPLVRPEVDVMCTAFHDNEATFLKKYLYEVARRHPYFYAPELLFFAARYKAAFAECCQAADKAACLLPKLDELRDEGKASSAKQRLKCASLQKFGDRAFKAWAVARLSQKFPKAEFAEVSKLVTDLTKVHTECCHGDLLECADDRADLAKYMCENQDSISSKLKECCDKPLLEKSHCLAEVENDEMPADLPSLAADYVESKDVCKNYAEAKDVFLGMFLYEYARRHPDYSVMLLLRLAKAYEATLEKCCAAADPHECYAKVFDEFQPLVEEPQNLVKQNCELFEQLGEYKFQNALLVRYTKKVPQVSTPTLVEVSRNLGKVGAKCCKLPEAKRMPCAEDYLSVVLNRLCVLHEKTPVSEKVTKCCTESLVNRRPCFSALELDEAYVPKAFNAETFTFHADMCTLSEKEKQVKKQTALVELVKHKPKATKEQLKGVMDNFAAFVEKCCKADDKEACFAEEGPKFVAASQAALA
notes: Bought product; also called cyno SA; Cynomolgus serum albumin

Assay [1] concerns the target T1, 对照抗体ALB8 (ALB8重组蛋白, VHH-hFc) (human).
T1 construct: Control anti-HSA nanobody expressed as fusion with human Fc; also called 对照纳米抗体ALB8
The assay is described as follows: ELISA, albumin coated at 1 μg/mL, HRP-anti-human Fc. (In an ELISA, binding on a coated surface is turned into a signal by an enzyme label.)

The next assay addresses T2, 牛血清白蛋白(BSA) (bovine, UniProt P02769 25-607).
T2 construct: also called Bovine serum albumin
The assay is described as follows: phage ELISA, phage supernatant on BSA-coated plate.

The assay “食蟹猴SA重组蛋白” addresses B1. In words: phage ELISA, phage supernatant on cyno SA-coated plate.

T1 sequence (chain, as listed by the source limits assumed): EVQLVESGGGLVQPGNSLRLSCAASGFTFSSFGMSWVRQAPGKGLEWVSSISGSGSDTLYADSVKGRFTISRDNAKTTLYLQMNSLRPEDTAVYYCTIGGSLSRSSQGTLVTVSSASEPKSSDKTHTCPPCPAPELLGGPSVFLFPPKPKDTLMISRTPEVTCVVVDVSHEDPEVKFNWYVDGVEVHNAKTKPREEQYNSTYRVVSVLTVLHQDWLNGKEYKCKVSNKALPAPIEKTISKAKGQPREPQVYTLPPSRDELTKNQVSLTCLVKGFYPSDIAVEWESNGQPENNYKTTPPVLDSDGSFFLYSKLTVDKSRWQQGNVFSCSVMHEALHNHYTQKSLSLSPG

Consider B1, for which, in assay [1], the binding result is given as “binds”.

B2: 噬菌体展示的纳米抗体2MG6 (VHH)
VHH: QVQLQESGGGLVQAGGSLRLSCAASGSTYPTAYIAWFRQAPGKEREGVAGIYTVGGSTFYTDSVKGRFTISRDNAKNTVYLLMNSLKPEDTAMYFCAAGRTDTAKLRDPRSFGYWGQGTQVTVSS
notes: the phage fusion part is not described; also called 克隆2MG6
B2: the results for the binding result with 牛血清白蛋白(BSA) and in the assay with 食蟹猴SA重组蛋白 were “no binding” and “binds”, respectively.
